Publication PMC9133112, “The structural basis of Cdc7-Dbf4 kinase dependent targeting and phosphorylation of the MCM2-7 double hexamer” (Nature Communications, 2022)

B1: Dbf4 (natural protein, Saccharomyces cerevisiae, UniProt P32325 1-704, looked up)
chain: MVSPTKMIIRSPLKETDTNLKHNNGIAASTTAAGHLNVFSNDNNCNNNNTTESFPKKRSLERLELQQQQHLHEKKRARIERARSIEGAVQVSKGTGLKNVEPRVTPKELLEWQTNWKKIMKRDSRIYFDITDDVEMNTYNKSKMDKRRDLLKRGFLTLGAQITQFFDTTVTIVITRRSVENIYLLKDTDILSRAKKNYMKVWSYEKAARFLKNLDVDLDHLSKTKSASLAAPTLSNLLHNEKLYGPTDRDPRTKRDDIHYFKYPHVYLYDLWQTWAPIITLEWKPQELTNLDELPYPILKIGSFGRCPFIGDRNYDESSYKRVVKRYSRDKANKKYALQLRALFQYHADTLLNTSSVNDQTKNLIFIPHTCNDSTKSFKKWMQEKAKNFEKTELKKTDDSAVQDVRNEHADQTDEKNSILLNETETKEPPLKEEKENKQSIAEESNKYPQRKELAATPKLNHPVLATFARQETEEVPDDLCTLKTKSRQAFEIKASGAHQSNDVATSFGNGLGPTRASVMSKNMKSLSRLMVDRKLGVKQTNGNNKNYTATIATTAETSKENRHRLDFNALKKDEAPSKETGKDSAVHLETNRKPQNFPKVATKSVSADSKVHNDIKITTTESPTASKKSTSTNVTLHFNAQTAQTAQPVKKETVKNSGYCENCRVKYESLEQHIVSEKHLSFAENDLNFEAIDSLIENLRFQI
notes: Dbf4, Saccharomyces cerevisiae, full length (41% resolved in the map); Subunit of m1, written alone for the contacts seen in the cryo-EM structures; also called dumbbell former 4; source: budding yeast cells, purified as subunit of DDK

Key:
Test in all cases: cryo-EM structure; MD-(ATPγS): 250 nM DH released from beads by AluI + 750 nM DDK, 10 min 24 °C, buffer C with 3 mM ATPγS; GraFix glycerol gradient with glutaraldehyde; states I-III
Details in all cases: both partners purified
Mcm6 = biological target: T1, Mcm6 (Saccharomyces cerevisiae, UniProt P53091 1-1017)
T1 construct: Mcm6, Saccharomyces cerevisiae, full length; Subunit of m2, written alone for the contacts seen in the cryo-EM structures
T1 sequence (P53091 whole entry): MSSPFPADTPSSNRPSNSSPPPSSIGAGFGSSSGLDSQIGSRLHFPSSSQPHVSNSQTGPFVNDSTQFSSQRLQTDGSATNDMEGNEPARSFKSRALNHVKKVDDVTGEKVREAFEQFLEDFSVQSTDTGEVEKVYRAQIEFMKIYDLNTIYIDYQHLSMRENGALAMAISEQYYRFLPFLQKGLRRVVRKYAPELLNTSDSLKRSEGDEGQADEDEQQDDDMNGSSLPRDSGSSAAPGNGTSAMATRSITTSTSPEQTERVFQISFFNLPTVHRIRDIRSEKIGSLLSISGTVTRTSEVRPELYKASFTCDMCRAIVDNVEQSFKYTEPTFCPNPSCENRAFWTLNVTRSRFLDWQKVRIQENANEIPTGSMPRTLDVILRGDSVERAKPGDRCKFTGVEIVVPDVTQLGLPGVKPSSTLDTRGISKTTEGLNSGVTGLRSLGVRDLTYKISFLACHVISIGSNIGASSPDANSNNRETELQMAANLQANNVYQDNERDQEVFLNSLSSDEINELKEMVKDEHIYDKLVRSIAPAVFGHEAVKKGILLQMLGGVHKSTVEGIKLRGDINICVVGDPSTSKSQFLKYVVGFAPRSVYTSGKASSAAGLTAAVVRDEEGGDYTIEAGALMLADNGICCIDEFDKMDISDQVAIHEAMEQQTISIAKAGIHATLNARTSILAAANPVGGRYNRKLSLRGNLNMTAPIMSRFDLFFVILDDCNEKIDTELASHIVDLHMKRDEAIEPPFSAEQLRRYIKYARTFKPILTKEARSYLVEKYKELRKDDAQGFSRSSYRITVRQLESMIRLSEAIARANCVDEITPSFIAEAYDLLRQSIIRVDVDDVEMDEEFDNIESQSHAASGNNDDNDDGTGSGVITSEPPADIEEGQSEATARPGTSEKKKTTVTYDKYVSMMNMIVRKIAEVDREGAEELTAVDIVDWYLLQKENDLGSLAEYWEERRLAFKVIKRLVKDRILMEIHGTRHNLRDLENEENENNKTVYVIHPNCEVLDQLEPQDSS

Mcm7 = biological target: T2, Mcm7 (Saccharomyces cerevisiae, UniProt P38132 1-845)
T2 construct: Mcm7, Saccharomyces cerevisiae, full length; Subunit of m2, written alone for the contacts seen in the cryo-EM structures
T2 sequence (looked up): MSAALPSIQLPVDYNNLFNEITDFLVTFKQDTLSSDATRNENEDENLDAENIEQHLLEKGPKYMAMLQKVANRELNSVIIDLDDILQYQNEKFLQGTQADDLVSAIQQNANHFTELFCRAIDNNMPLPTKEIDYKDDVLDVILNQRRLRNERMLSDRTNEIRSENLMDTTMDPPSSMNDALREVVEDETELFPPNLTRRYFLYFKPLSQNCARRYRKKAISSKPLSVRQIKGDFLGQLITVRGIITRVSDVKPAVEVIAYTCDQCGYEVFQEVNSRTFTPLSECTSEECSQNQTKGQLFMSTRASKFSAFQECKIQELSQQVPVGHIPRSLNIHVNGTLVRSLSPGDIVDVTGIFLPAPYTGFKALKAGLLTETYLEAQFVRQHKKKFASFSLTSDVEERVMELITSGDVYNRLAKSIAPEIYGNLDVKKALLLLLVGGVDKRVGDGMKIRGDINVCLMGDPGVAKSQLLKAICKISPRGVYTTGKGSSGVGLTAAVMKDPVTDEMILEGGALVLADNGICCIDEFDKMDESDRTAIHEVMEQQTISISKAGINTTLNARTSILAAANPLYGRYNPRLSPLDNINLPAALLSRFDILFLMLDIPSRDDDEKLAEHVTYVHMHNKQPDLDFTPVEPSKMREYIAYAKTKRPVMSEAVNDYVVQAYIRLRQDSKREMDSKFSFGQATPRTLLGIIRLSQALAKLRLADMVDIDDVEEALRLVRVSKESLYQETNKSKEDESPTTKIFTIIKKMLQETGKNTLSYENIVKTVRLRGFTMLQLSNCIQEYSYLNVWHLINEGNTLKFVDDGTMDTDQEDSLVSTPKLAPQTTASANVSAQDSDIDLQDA

Mcm2 = biological target: T3, Mcm2 (Saccharomyces cerevisiae, UniProt P29469 1-868)
T3 construct: Mcm2, Saccharomyces cerevisiae, full length; Subunit of m2, written alone for the contacts seen in the cryo-EM structures
T3 sequence (looked up): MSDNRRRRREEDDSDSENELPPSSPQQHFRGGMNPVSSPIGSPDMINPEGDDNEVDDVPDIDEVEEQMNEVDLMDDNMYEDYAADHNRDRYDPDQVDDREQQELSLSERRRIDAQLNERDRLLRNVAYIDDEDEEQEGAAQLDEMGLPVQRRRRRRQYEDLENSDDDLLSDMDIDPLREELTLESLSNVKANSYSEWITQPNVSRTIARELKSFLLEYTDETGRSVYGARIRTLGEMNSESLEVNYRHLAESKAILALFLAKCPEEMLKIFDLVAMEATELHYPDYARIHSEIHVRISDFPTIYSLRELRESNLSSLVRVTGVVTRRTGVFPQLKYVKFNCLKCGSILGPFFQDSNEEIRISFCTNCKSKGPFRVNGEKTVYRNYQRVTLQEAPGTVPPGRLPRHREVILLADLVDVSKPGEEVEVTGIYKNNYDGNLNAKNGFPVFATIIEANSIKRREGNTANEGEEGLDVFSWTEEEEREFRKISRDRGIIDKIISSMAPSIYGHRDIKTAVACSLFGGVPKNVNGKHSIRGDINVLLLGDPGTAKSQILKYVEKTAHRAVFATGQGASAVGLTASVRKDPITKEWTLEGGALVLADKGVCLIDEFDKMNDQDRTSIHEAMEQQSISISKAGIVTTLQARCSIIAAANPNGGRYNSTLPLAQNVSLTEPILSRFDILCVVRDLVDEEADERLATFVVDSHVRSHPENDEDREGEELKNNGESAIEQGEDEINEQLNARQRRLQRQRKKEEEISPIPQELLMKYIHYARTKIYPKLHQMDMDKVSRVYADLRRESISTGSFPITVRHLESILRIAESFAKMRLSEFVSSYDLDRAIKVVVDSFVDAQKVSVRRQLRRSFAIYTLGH

Mcm4 = biological target: T4, Mcm4 (Saccharomyces cerevisiae, UniProt P30665 1-933)
T4 construct: Mcm4, Saccharomyces cerevisiae, full length; Subunit of m2, written alone for the contacts seen in the cryo-EM structures
T4 sequence (looked up): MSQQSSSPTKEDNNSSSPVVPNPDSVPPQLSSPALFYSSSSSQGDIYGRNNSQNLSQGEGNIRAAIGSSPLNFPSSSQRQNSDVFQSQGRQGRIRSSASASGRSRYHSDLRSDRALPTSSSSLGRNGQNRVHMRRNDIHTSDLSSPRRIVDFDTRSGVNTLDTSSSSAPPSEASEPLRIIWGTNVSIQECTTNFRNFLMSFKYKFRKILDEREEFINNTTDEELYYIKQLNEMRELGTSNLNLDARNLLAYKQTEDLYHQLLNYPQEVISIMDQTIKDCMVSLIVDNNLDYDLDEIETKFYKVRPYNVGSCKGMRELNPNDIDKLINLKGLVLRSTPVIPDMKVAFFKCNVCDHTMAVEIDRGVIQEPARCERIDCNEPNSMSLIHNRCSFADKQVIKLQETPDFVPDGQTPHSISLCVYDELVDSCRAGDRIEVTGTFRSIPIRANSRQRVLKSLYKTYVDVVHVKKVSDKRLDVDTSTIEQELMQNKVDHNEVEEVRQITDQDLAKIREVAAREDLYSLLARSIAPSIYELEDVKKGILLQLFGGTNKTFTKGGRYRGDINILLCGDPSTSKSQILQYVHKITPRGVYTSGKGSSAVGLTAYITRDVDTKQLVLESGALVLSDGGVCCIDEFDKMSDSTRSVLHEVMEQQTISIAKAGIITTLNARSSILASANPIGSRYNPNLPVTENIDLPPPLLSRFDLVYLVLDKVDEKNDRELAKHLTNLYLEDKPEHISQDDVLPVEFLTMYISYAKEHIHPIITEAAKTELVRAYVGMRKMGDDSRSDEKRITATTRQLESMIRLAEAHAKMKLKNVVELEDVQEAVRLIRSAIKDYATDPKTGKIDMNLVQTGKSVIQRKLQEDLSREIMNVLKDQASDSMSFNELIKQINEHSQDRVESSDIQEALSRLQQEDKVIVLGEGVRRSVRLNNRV

Dbf4 = biological target: B1

Measured: binding result

B1
not listed: Dbf4
binds: all other assays above

B2: Cdc7 (enzyme, Saccharomyces cerevisiae, UniProt P06243 1-507, looked up)
chain: MTSKTKNIDDIPPEIKEEMIQLYHDLPGIENEYKLIDKIGEGTFSSVYKAKDITGKITKKFASHFWNYGSNYVALKKIYVTSSPQRIYNELNLLYIMTGSSRVAPLCDAKRVRDQVIAVLPYYPHEEFRTFYRDLPIKGIKKYIWELLRALKFVHSKGIIHRDIKPTNFLFNLELGRGVLVDFGLAEAQMDYKSMISSQNDYDNYANTNHDGGYSMRNHEQFCPCIMRNQYSPNSHNQTPPMVTIQNGKVVHLNNVNGVDLTKGYPKNETRRIKRANRAGTRGFRAPEVLMKCGAQSTKIDIWSVGVILLSLLGRRFPMFQSLDDADSLLELCTIFGWKELRKCAALHGLGFEASGLIWDKPNGYSNGLKEFVYDLLNKECTIGTFPEYSVAFETFGFLQQELHDRMSIEPQLPDPKTNMDAVDAYELKKYQEEIWSDHYWCFQVLEQCFEMDPQKRSSAEDLLKTPFFNELNENTYLLDGESTDEDDVVSSSEADLLDKDVLLISE
notes: Cdc7 serine/threonine kinase, Saccharomyces cerevisiae, full length (87% resolved in the map); Subunit of m1, written alone for the contacts seen in the cryo-EM structures; also called Cdc7 kinase; Cdc7 serine/threonine kinase; source: budding yeast cells, purified as subunit of DDK
binds: Dbf4 | Mcm4
